# Test results reported in CN114075278A.
# Like-named read-outs stand apart in the source and are kept apart here.
# B1: 实施例1的抗Flu-A抗体(WT) (antibody, V domains shown)
# VH: EVQLQQSGPELVKPGASVKISCKASGFSFSGYYLHWVRQSPLKSLEWIGRINPYNGGTTYNQDFKGKASLTVDKSSSTAYMELHSLTSEDSAVYYCARYSSVDAMDYWGQGTSVTVSS
# VL: QIVLTQSPAIMSASLGERVTMTCTGSSSVLSSYLHWYQQKPGSSPKLWIYSSSNLASGVPARFSGSGSGTSYSLTISSMEAEDAATYYCQQWHRSPWTFGGGTKLEIKR
# Legend:
# 流感A抗原 [1] = test: sandwich ELISA: antibody at 1250 ng/ml captured on goat anti-mouse IgG, Flu-A antigen, HRP-labelled paired mAb
# 流感A抗原 [2] = test: sandwich ELISA: antibody at 2500 ng/ml captured on goat anti-mouse IgG, Flu-A antigen, HRP-labelled paired mAb
# 流感A抗原 [3] = test: sandwich ELISA: antibody at 5000 ng/ml captured on goat anti-mouse IgG, Flu-A antigen, HRP-labelled paired mAb
# 流感A抗原 [4] = test: sandwich ELISA: antibody at 312.5 ng/ml captured on goat anti-mouse IgG, Flu-A antigen, HRP-labelled paired mAb
# 流感A抗原 [5] = test: biolayer interferometry, AMC sensors, antibody immobilised, antigen in a dilution series
# 流感A抗原 [6] = target: 流感A抗原
# 流感A抗原 [7] = test: sandwich ELISA: antibody at 625 ng/ml captured on goat anti-mouse IgG, Flu-A antigen, HRP-labelled paired mAb
binder,measurement,setting,value
B1,OD450 (ref 630 nm),流感A抗原 [1],0.946 OD
same,OD450 (ref 630 nm),流感A抗原 [2],1.39 OD
same,OD450 (ref 630 nm),流感A抗原 [3],1.73 OD
same,OD450 (ref 630 nm),流感A抗原 [4],0.535 OD
same,Kd,流感A抗原 [5],40.5 nM
same,OD450 (ref 630 nm),流感A抗原 [6],> 1 OD
same,OD450 (ref 630 nm),流感A抗原 [7],0.754 OD
